Experimental findings from PMC6092330 are described below.

The experiment has as its target acid-purified histones (human (endogenous in TE-7)).

B1: recombinant GST-tagged full-length IL-33 (H00090865-P01, Abnova) (natural protein)
chain: MKPKMKYSTNKISTAKWKNTASKALCFKLGKSQQKAKEVCPMYFMKLRSGLMIKKEACYFRRETTKRPSLKTGRKHKRHLVLAACQQQSTVECFAFGISGVQKYTRALHDSSITGISPITEYLASLSTYNDQSITFALEDESYEIYVEDLKKDEKKDKVLLSYYESQHPSNESGDGVDGKMLMVTLSPTKDFWLHANNKEHSVELHKCEKPLPDQAFFVLHNMHSNCVSFECKTDPGVFIGVKDNHLALIKVDSSENLCTENILFKLSET
Regarding B1, the CCL2 secretion by HMC-1 mast cells (42-cytokine multiplex array), fold change against untreated, 23.4 nM recombinant WT IL-33 without and with 6.7 µg/mL acid-purified histones amounted to 822 fold.
